Measurements reported in the nanobody polyreactivity screen of Harvey et al. (2022).

Assay: yeast display, Sf9 membrane polyspecificity reagent, FACS + sequencing; frameworks hold sequencing errors
Procedure, shortened: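 Polyreactivity labels are assigned by the sorting gate from which each nanobody was recovered. The gates were low and high (top ~1%), set on anti-HA fluorescence for expression and streptavidin fluorescence for reagent binding. Before sorting, galactose-induced (36–48 hours) yeast display cells were stained for 1 hour at 4 °C with 10% biotinylated, detergent-solubilized Sf9 membrane reagent.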

| Sequence | polyreactivity (PSR sort gate) |
| --- | --- |
| QVQLVESGGGLVQAGGSLRLSCAAYGYTFDSYTIGWYRQAPGKERELVAAITRSGSSTYYADSVKGRFTISRDNAKNTVYLQMNSLKPDDTAVYSCAAGWRRADGIEYWYGYWGQGTQVTVSS | high polyreactivity |
| QVQLVESGGGLVQAGGSLRLSCADSARIFSFNTMGWYRQAPGKETELVAAISYRGRTYYADSVKGRFTISRDNAKKTVYLQMNSLKPEDTAVYYCIAVYGYWYGSWGQGTQVTVSS | high polyreactivity |
| QVQLVESGGGLVQAGGSLRLSCADSGFIFATNAMGWYRQAPGKERDFVAAITSGGSTYYADSVKGRFTISRDNAKNTVYLQMNSLKPEDTAVYYCNARTYSRVTRQTYRYRPYDYWGQGTQVSVSS | high polyreactivity |
| QVQLVESGGGLVQAGGSLRLSCADSGFIFGYYAKGWYRQAPGKERELVADISRGGNTNYADSVKGRFTISRDNAKNTVYLQMNSLKPEDTAVYYCARYRRGKMDYCGQGTQVTVSS | high polyreactivity |
| QVQLVESGGGLVQAGGSLRLSCADSGFIFTAYAMGWYRQAPGKERELVAAISRSGGRTYYADSVKGRFTISRDNAKNTVYLQMNSLKPEDTAVYYCNADFHSGGGYWGQGTQVTLSS | high polyreactivity |
| QVQLVESGGGLVQAGGSLRLSCADSGFIFTVNAMGWYRQAPGKERELVAAITSGGNTYYADSVKGRFTISRDNAKNTVYLQMNSLKPEDAAVYYCNAVFYTWSPYGTTVRSYGYWGQGTQVTVSS | high polyreactivity |
| QVQLVESGGGLVQAGGSLRLSCADSGFSIWWYDMGWYRQAPGKERELVAAITADGGDTYYADSVKGRFTISRDYANHTDYLQMNSLKPEDTAVYYCAAEYDVYGYYYWGQGTQVTVSS | high polyreactivity |
| QVQLVESGGGLVQAGGSLRLSCADSGFTFLSNVMGWYRQAPGKERELDAAINYSGDGTYYADSVKGRFTISRDNAKNTVYLQMNSLKPEDSAVYYCAADVEYYRDVPPQVYVSDDYWGQGTQVTVSS | low polyreactivity |
| QVQLVESGGGLVQAGGSLRLSCADSGFTFSWYTMGWYRQAPGKERELVASITVSGGSTYYADSVKGRFTISRDNAKNTVYLQMNSLKPEDTAVYYCNAQDPFTYYSSSPTYDYWGQGTQVTVSS | low polyreactivity |
| QVQLVESGGGLVQAGGSLRLSCADSGFTFTYYDMGWYRQAPGKERELVAAISSGGSTNYADSVKGRFTISRDNAKNTVYLQMNSLKPEDTAVYYCAASITHYWYGYWGQGTQVTVSS | high polyreactivity |
| QVQLVESGGGLVQAGGSLRLSCADSGGIFDWNDMGWYRHEPGKESELVAAITSGGVTYYADSVKGRFTISRDNAKNTVYLQMNSLIPDDTSVFYCATGYWGLWYGYDSWGQGTQVTVSS | low polyreactivity |
| QVQLVESGGGLVQAGGSLRLSCADSGGIFNTYAMGWYRQAPGKEREFVAAISRRGGGTYYADSVKGRFTISRDNAKNTVYLQMNSLKPEDTAVYYCAAKRFHEHGYWGQGTQVTVSS | high polyreactivity |
| QVQLVESGGGLVQAGGSLRLSCADSGGILFNYDMGWYRPAPGKERELVAAISRRGGTTYYADSVKGRFTISRDNAKNTVYLQMNSLKPEDTAVYYCAAYIYYSYYARVGYGDGNGYDYWGQGTQVTVSS | high polyreactivity |
| QVQLVESGGGLVQAGGSLRLSCADSGITFDANTMGWYRQAPGKERELVAVITDTGSTNYADSVKGRFTISRDNAKNTVYLQMNSLKPEDTAVYYCNADAEPSSGTSANNDYWGQGTQVTVSS | low polyreactivity |
| QVQLVESGGGLVQAGGSLRLSCADSGITLQSYAMGWYRQAPGKERELVAAITSGSSTHYADSVKGRFTISRYNAKYTVYLQMYSLKPEDTAVYYCAADRVYFGDLFVVYYFIQYDFWGQGTQVTVSS | low polyreactivity |
| QVQLVESGGGLVQAGGSLRLSCADSGLIFTANDRGWYRQAPGKERELVADISKSGSSTYYADSVKGRFTISRDNAKNTVYLQMNSLKPEDTAVYYCNADYLTYFTTFDYWGQGTQVTVSS | low polyreactivity |
| QVQLVESGGGLVQAGGSLRLSCADSGLTFGRNAMGWYRHAPGKERELVAAITFNGGSTYYADSVKGRFTISRDNAKNTVYLQMNSLKPEDTAVYYCSGRLWRRSRFDYWGQGTQVTVSS | high polyreactivity |
| QVQLVESGGGLVQAGGSLRLSCADSGLTFIYYAMGWYRQAHGKERELVAAISSSGGRTYYADSVKGRFTISRDNAKNTVYLQMNSLKPEDTAVYYCATRYWTQSSSFDYWGQGTQVTVSS | high polyreactivity |
| QVQLVESGGGLVQAGGSLRLSCADSGLTFWVYAMGWYRQAPGKERELVAAISSGGSTNYADSVKGRFTISRDNAKNTVYVQMNSLKPEDTAVYYCAAEWVYWQDELWDSPGLVEFDYWGQGTQVTVSS | low polyreactivity |
| QVQLVESGGGLVQAGGSLRLSCADSGNIFSTYAMGWYRQEPGKERELVASISENGGSTYYADSVKGRFTISRDNAKNTVYLQMNCLKPEDTAVYYCAIGPLYSLFFQHDAPYRYGYWGQGTQVTVSS | low polyreactivity |
| QVQLVESGGGLVQAGGSLRLSCADSGRIFGYYTMGWSRQAPGKERELVAAITSSGSSTYYADSVKGRFTISRDNAKNTVYLQMNSLKPEDTAVYYCNARAYWRNEYWGQGTQVTVSS | high polyreactivity |
| QVQLVESGGGLVQAGGSLRLSCADSGRIFQPNVMGWYRQAPGKERELVAAIRSGSSTYYADSVKGRFTISRDNAKNTVYLQMNSLKPEDTAVYYCATRRAGRGYDYWGQGTQVTVSS | high polyreactivity |
| QVQLVESGGGLVQAGGSLRLSCADSGRIFRGNTMGWYRQAPGKERELVATINGRGGSTYYADSVKGRFTISRDNAKNTLYLQMNSLKPEDTAVYYCAARARTTRSATYDYWGQGTQVTVSS | high polyreactivity |
| QVQLVESGGGLVQAGGSLRLSCADSGRIFTSYVMGWYRPAPGQERELVAAITRSGGSTYYADSVKGRFTNSRDNAKNTVYLQMNSLKPEDTAVYYCIALTRRQKGGEGGGYWGQGTQVTVSS | high polyreactivity |
| QVQLVESGGGLVQAGGSLRLSCADSGRIFYRYAMGWYRQAPGKERELVAAITNSGGRTYYADSVKGRFTISRDNAKNTVYLQMNSVKPEDSAVYYCNAVKTSEYDYWGQGTQVTVSS | high polyreactivity |
| QVQLVESGGGLVQAGGSLRLSCADSGRIFYYYTMGWYRQAPGKERELVARINSSGSTNLRRLCEGALHNFTRQCEEYRLFTDEQPETGRYRVYYCNADTKRSSREYDYWGQGTQVTVSS | low polyreactivity |
| QVQLVESGGGLVQAGGSLRLSCADSGRILIGYTRGWYRQAPGKERELVARINYSGGSTYYADSVKGRFTISRDNAKNTVYLQMNSLKPEDTAVYYCAADVRRGYYTWPPRRVYYWGQGTQVTVSS | high polyreactivity |
| QVQLVESGGGLVQAGGSLRLSCADSGRTFGVYTMGWYRQAPGKERELVAAISGSGGSTYYADSVKGRFTISRDNAKNTVYLQMNSLKPEDTAVYYCNADQNVDVFYRYRLYDSWGQGTQVTVSS | high polyreactivity |
| QVQLVESGGGLVQAGGSLRLSCADSGRTFSYNLMGWYSQAPGKESEVVAAISRRGGSTYYADSVKGRFTISRDNAKNTVYLQMNSLKPEDTAVYYCNAVSPSPGGGYWGQGSQVTVSS | high polyreactivity |
| QVQLVESGGGLVQAGGSLRLSCADSGRTFVTTAMGWYRQAPGKERELVAAIDGGGDRTYYADTVKVRFTISRDYAKYTVYLQMNSLKPEDSAVYYCNKDRGTLYGDMDSWGQGTQVTVSS | low polyreactivity |
